Source: patent US20190134153A1, “IMMUNOMODULATORY EFFECT OF INHALED KINASE INHIBITOR PEPTIDES IN LUNG” (MOERAE MATRIX, INC., priority 2017, published 2019)

Columns and labels:
Test in all cases: Kinase Profiling Assay
Assay type in all cases: biochemical
Conditions in all cases: 100 μM
LOK(h) = LOK(h) (Homo sapiens, UniProt O94804)
PDGFRβ(h) = PDGFRβ(h) (Homo sapiens, UniProt P09619)
Pyk2(h) = Pyk2(h) (Homo sapiens, UniProt Q14289)
Aurora-B(h) = Aurora-B(h) (Homo sapiens, UniProt Q96GD4)
EphA3(h) = biological target: T1, EphA3(h) (Homo sapiens, UniProt P29320)
T1 sequence (P29320 21-983): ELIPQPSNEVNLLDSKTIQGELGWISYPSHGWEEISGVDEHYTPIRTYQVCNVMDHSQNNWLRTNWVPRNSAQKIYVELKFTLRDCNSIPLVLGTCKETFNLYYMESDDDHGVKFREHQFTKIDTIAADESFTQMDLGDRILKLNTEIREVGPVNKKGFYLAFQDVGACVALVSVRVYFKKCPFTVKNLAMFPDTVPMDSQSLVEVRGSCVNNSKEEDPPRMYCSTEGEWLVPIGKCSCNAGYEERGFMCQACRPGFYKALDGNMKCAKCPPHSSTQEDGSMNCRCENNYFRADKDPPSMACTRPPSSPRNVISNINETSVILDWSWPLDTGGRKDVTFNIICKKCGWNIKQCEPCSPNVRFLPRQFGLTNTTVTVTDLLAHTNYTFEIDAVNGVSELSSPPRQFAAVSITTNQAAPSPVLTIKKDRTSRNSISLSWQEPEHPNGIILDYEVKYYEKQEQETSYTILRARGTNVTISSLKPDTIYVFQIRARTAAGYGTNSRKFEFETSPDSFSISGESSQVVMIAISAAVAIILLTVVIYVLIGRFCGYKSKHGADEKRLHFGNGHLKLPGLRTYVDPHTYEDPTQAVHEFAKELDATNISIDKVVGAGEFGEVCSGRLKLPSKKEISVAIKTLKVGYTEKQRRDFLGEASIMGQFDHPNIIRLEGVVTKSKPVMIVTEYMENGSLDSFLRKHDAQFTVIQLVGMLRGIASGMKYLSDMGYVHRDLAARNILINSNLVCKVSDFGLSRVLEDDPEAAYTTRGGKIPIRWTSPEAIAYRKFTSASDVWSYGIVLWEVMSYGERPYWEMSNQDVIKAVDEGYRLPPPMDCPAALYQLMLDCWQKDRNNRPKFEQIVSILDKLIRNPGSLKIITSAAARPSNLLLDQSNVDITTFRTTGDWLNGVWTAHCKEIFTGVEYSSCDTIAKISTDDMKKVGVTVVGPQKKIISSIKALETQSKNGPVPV

EphB2(h) = biological target: T2, EphB2(h) (Homo sapiens, UniProt P29323)
T2 sequence (P29323 19-1055): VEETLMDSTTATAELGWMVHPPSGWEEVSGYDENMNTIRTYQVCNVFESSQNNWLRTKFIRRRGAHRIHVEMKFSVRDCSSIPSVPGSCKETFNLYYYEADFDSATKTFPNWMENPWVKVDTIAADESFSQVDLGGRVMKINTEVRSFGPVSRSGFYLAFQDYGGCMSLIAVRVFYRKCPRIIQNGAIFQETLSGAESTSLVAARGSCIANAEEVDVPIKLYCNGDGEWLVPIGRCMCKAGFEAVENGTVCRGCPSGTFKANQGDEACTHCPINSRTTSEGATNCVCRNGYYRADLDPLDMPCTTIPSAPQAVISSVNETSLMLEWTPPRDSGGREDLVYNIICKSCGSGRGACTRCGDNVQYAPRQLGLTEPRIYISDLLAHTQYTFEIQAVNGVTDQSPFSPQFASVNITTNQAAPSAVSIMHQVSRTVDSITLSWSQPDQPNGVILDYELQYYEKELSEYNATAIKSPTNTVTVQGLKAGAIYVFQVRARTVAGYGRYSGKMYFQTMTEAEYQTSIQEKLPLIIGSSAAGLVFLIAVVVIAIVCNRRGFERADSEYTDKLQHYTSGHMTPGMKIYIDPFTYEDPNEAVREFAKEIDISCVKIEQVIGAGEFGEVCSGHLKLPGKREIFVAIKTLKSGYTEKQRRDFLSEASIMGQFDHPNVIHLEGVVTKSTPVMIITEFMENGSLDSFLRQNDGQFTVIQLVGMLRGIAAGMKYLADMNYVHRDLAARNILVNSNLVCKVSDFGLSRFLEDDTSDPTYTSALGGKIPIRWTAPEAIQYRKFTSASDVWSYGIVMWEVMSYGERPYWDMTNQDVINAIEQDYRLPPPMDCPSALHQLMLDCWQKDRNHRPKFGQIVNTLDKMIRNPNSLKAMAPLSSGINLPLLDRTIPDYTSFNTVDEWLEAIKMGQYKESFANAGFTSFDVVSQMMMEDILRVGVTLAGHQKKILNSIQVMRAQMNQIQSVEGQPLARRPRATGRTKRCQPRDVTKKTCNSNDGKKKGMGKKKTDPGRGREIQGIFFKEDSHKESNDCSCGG

NEK11(h) = biological target: T3, NEK11(h) (Homo sapiens, UniProt Q8NG66)
T3 sequence (Q8NG66 1-645): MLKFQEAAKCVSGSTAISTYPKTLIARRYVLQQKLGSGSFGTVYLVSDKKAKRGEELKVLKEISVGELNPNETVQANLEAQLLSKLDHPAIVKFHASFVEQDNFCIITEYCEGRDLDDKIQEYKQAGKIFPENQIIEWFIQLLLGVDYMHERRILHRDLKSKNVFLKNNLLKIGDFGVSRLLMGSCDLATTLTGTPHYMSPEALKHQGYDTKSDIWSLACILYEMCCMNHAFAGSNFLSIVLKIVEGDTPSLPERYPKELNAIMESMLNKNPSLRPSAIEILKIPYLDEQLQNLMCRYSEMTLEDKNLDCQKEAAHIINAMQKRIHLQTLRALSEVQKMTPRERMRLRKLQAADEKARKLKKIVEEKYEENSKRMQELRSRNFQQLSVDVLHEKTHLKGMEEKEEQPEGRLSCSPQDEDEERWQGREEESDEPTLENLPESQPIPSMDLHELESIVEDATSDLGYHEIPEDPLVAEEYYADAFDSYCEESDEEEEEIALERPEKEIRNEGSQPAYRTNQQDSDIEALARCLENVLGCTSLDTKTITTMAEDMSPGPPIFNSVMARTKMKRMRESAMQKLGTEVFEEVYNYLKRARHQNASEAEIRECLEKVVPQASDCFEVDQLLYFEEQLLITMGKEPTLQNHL

Sequence of Pyk2(h) (Q14289 whole entry): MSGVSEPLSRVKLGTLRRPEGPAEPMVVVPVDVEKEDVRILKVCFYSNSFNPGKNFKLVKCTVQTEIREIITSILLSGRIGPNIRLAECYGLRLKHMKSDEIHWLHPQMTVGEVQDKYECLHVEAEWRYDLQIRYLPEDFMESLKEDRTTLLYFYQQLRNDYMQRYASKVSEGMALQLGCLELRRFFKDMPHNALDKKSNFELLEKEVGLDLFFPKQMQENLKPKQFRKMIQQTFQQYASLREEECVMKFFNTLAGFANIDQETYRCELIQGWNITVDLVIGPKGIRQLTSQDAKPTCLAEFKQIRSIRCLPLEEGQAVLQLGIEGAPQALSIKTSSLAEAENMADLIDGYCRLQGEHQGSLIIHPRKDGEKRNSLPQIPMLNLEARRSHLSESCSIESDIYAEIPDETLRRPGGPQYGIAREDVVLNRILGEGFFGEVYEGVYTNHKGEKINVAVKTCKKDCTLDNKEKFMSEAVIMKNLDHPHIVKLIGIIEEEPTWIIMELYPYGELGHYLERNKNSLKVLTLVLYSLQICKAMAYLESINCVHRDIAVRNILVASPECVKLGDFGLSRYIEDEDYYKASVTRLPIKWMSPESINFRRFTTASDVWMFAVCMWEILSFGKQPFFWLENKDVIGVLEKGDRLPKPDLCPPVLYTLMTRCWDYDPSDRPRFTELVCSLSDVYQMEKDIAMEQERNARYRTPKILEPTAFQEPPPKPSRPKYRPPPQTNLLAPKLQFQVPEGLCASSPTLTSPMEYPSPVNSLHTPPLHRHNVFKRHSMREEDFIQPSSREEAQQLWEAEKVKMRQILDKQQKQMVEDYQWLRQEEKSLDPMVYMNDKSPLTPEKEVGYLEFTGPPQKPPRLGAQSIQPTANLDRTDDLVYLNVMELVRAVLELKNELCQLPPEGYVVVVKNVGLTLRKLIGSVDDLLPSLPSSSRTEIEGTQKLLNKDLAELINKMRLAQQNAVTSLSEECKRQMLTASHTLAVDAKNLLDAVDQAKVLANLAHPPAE
Sequence of LOK(h) (O94804 whole entry): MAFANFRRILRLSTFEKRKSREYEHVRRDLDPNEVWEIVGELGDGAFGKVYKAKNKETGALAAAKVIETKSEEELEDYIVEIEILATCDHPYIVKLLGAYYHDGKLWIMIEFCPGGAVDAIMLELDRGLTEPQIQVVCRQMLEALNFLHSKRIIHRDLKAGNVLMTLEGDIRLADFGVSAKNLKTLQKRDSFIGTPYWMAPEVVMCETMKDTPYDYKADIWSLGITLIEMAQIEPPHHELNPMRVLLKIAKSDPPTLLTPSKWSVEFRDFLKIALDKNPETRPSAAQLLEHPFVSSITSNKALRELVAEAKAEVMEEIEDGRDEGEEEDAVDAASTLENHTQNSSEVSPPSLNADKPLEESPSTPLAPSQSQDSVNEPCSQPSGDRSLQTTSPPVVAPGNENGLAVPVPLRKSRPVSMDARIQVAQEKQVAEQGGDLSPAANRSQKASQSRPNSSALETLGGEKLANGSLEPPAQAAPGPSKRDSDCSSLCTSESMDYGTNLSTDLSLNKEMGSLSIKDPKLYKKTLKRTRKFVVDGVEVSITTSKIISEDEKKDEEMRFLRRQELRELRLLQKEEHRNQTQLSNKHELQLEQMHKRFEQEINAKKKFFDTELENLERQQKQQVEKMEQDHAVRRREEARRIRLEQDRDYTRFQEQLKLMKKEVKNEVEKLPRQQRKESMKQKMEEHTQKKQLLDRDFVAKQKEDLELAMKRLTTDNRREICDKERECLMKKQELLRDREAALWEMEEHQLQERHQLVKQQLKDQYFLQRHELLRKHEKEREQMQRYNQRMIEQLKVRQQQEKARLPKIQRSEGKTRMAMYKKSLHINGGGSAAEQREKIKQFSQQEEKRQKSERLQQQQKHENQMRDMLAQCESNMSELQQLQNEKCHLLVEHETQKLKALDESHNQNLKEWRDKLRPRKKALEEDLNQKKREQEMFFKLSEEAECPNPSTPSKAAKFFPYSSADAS
Sequence of PDGFRβ(h) (P09619 33-1106): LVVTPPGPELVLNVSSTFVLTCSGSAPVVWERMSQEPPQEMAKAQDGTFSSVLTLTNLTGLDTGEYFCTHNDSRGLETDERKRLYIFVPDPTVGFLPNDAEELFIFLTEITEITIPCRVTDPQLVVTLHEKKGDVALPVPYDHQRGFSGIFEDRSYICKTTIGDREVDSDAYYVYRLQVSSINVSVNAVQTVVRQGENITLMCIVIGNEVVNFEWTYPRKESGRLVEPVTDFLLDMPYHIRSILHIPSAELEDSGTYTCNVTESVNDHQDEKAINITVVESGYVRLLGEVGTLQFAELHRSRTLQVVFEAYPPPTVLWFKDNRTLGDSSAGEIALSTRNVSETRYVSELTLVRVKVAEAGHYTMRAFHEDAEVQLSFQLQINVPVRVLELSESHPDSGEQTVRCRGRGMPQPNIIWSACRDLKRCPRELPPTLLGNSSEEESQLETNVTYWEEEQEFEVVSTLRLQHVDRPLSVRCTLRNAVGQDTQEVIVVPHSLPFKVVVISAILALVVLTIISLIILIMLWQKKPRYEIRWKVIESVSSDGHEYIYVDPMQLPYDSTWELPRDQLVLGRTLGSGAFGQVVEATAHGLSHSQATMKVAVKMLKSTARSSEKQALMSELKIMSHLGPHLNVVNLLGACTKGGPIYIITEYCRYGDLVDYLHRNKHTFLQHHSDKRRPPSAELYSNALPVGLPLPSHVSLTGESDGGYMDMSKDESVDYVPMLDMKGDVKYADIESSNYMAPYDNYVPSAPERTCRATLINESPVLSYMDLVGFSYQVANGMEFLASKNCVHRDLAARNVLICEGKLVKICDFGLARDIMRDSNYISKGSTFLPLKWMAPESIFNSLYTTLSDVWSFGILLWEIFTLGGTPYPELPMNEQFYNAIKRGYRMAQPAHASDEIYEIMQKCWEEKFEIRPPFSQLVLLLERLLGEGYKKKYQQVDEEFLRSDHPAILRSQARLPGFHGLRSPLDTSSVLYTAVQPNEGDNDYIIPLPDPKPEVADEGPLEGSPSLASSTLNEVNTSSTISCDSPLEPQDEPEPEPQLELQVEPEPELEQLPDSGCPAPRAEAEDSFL
Sequence of Aurora-B(h) (Q96GD4 whole entry): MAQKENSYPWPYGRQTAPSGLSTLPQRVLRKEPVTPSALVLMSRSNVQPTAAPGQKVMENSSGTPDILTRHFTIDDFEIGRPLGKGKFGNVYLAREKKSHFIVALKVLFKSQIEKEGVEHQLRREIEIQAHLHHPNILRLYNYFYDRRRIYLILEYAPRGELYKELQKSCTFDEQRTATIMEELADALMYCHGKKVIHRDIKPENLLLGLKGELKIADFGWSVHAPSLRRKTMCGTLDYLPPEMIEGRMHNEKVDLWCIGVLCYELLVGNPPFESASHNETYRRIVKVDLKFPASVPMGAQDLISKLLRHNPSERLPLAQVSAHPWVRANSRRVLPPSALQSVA

Sequence	% activity (LOK(h))	% activity (PDGFRβ(h))	% activity (Pyk2(h))	% activity (Aurora-B(h))	% activity (EphA3(h))	% activity (EphB2(h))	% activity (NEK11(h))
FAKLAARLYRKALARQLGVAA [MMI-0300]	37%	81%	47%	128%	6%	18%	53%
HRRIKAWLKKIKALARQLGVAA [MMI-0500]	7%	40%	46%	5%	33%	70%	2%
KAFAKLAARLYRKALARQLGVAA [MMI-0400]	18%	53%	34%	150%	12%	22%	33%
YARAAARQARAKALNRQLGVA [MMI-0200]	67%	137%	127%	166%	–	128%	95%
